Laboratory results as given in patent publication US20090291088A1 (Biogen, published 2009).

Legend:
[1] = molecular target: T1, hIGF-1R-Fc mutant SD103 (D461A, V462T) (human, UniProt P08069 31-933); assay: SPR, Fab over captured mutant
T1 construct: not shown: C-terminal human IgG1-Fc tag

[2] = molecular target: T2, hIGF-1R-Fc mutant SD113 (E570A, I571T) (human, UniProt P08069 31-933); assay: SPR, Fab over captured mutant
T2 construct: not shown: C-terminal human IgG1-Fc tag

[3] = molecular target: T3, hIGF-1R-Fc mutant SD109 (Y482A, R483W) (human, UniProt P08069 31-933); assay: SPR, Fab over captured mutant
T3 construct: not shown: C-terminal human IgG1-Fc tag

[4] = molecular target: T4, hIGF-1R-Fc mutant SD108 (H480E) (human, UniProt P08069 31-933); assay: SPR, Fab over captured mutant
T4 construct: not shown: C-terminal human IgG1-Fc tag

[5] = molecular target: T5, hIGF-1R-Fc mutant SD104 (H464A) (human, UniProt P08069 31-933); assay: SPR, Fab over captured mutant
T5 construct: not shown: C-terminal human IgG1-Fc tag

[6] = molecular target: T6, hIGF-1R-Fc mutant SD102 (E459A, S460A) (human, UniProt P08069 31-933); assay: SPR, Fab over captured mutant
T6 construct: not shown: C-terminal human IgG1-Fc tag

[7] = molecular target: T7, human IGF-1R(1-902)-His10 (human, UniProt P08069 31-932); assay: SPR, Fab over captured IGF-1R-10His
T7 construct: Cy5-labelled in tr-FRET; also called hIGF-1R-His10; IGF-1R-His
Protocol: All surface plasmon resonance (SPR) experiments were performed on a Biacore 3000 set to 25° C. using HBS-EP (Biacore, Cat. No. BR-1001-88) as the running buffer. A biotin-labeled anti-HisTag antibody (biotin-PENTA-His, Qiagen Cat. No. 34440) was immobilized to saturation on a Biacore SA chip (Cat. No. BR-1000-32) surface by injection at 500 nM in HBS-EP buffer. […] Subsequent to IGF-1R injections, flow rates were increased to 20 μL/min. A second, 130 μL injection of anti-IGF-1R antibody or Fab was performed to investigate interactions with the receptor. Each antibody and Fab was serially diluted from 64 nM to 0.5 nM to obtain concentration dependent kinetic binding curves. Each injection series was regenerated using 3×10 μL injections of 10 mM Acetate, pH 4.0, at 20 μL/min. Each curve was double referenced using (1) data obtained from a streptavidin surface devoid of IGF-1R and (2) data from a primary injection of IGF-1R followed by a secondary injection of HBS-EP buffer. The concentration series for each antibody and Fab was fit to the 1:1 binding model provided within the BiaEvaluation software of the manufacturer.
To obtain discrete affinities, Fab fragments of each antibody were generated using papain digestion as described above.

[8] = molecular target: T8, human IGF-1R expressed on cells (human, UniProt P08069 31-1367); assay: flow cytometry, MCF-7 cells
T8 construct: On MCF-7 tumor cells or on 3T3/CHO transfectants; precursor is processed into alpha and beta subunits; Signal peptide 1-30 left out as stated; also called wild type IGF-1R; IGF-1R 3T3

[9] = molecular target: T9, human IGF-1R(1-903)-Fc (human, UniProt P08069 31-933); assay: SPR, Fab over hIGF-1R-Fc captured by anti-Fc, 1:1 model, apparent affinity
T9 construct: Made by Biogen Idec; Multimerises through IGF-1R and Fc; also called hIGF-1R-Fc; IGF-1R-Fc; not shown: C-terminal human IgG1-Fc tag
Protocol: Experiments were performed on a Biacore 3000 set to 25° C. using HBS-EP (Biacore, Cat. No. BR-1001-88) as the running buffer. An anti-human IgG-Fc antibody (2C11 from Biogenesis, Cat. No. 5218-9850) was immobilized to saturation on a Biacore CM5 chip (Cat. No. BR-1000-14) surface by injection at 500 nM in HBS-EP buffer. mIGF-1R-Fc or hIGF-1R-Fc was captured on the chip surface by injecting 40 μL of 20 nM receptor at 3 μL/min. […] Dissociation of Fab was measured for ˜27 minutes. Fab was serially diluted from 25 to 0.4 nM to obtain concentration dependent kinetic binding curves. Regeneration of the surface chip between each injection series was performed using 3×10 μL injections of 100 mM glycine pH 2.0 at 60 μL/min. Each curve was double referenced using (1) data obtained from a CM5 chip surface devoid of the anti-IgG antibody 2C11 and (2) data from a primary injection of receptor followed by a secondary injection of HBS-EP buffer.

[10] = molecular target: T10, hIGF-1R-Fc mutant SD015 (H464E) (human, UniProt P08069 31-933); assay: SPR (Biacore): M13-C06 injected over SD015 captured on an immobilised M13-C06 surface
T10 construct: not shown: C-terminal human IgG1-Fc tag
Protocol: After, completion of the receptor-Fc loading step, flow rates were elevated to 5 μl/min. […] At the end of each sensorgram, the flow rate was elevated to 30 μl/min and the chip surface was regenerated by 2×10 μL injections of 0.1 M glycine, pH 2.

B1: M13-C06 Fab (Fab, V domains shown)
VH: EVQLLESGGGLVQPGGSLRLSCAASGFTFSIYRMQWVRQAPGKGLEWVSGISPSGGTTWYADSVKGRFTISRDNSKNTLYLQMNSLRAEDTAVYYCARWSGGSGYAFDIWGQGTMVTVSS
VL: DIQMTQSPLSLSASVGDRVTITCQASRDIRNYLNWYQQKPGKAPKLLIYDASSLQTGVPSRFGGSGSGTDFSFTIGSLQPEDIATYYCQQFDSLPHTFGQGTKLEIK
notes: Human Fab from a phage library, kappa light chain
Q: Does B1 bind [1]?
A: no binding (tested: 10 nM)

Q: Does B1 bind [2]?
A: no binding (tested: 10 nM)

Q: Does B1 bind [3]?
A: no binding (tested: 10 nM)

Q: Does B1 bind [4]?
A: no binding (tested: 10 nM)

Q: Does B1 bind [5]?
A: no binding (tested: 10 nM)

Q: Does B1 bind [6]?
A: no binding (tested: 10 nM)

Q: What about the koff [7] of the same binder?
A: 0.0012 s⁻¹

Q: And the kon [7]?
A: 880000 M⁻¹ s⁻¹

Q: What about the EC50 [8] of the same binder?
A: 8.8 nM

Q: And the Kd [9]?
A: 0.978 nM

Q: Does B1 bind [10]?
A: no binding (tested: 10 nM)
